According to patent US12324826B2, “Compositions and methods to mitigate or prevent an immune response to an immunogenic therapeutic molecule in non-human primates” (Jomoco, Corp, priority 2015, dated 2025):

How the values were obtained:
[1] = tested on: ADA against the potentially immunogenic therapeutic agent
Protocol: Administration of a basiliximab loading dose on Day 0 of the NHP toxicology study is followed on Day 1 by administration of a basiliximab maintenance dose and the potentially immunogenic therapeutic agent. Basiliximab is dosed approximately every 10 days to maintain a serum concentration at which CD25 is almost completely bound by basiliximab (about 200 ug/mL). The therapeutic agent is dosed at the proscribed interval and dose.
Administration of a nanocarrier encapsulated rapamycin (NER) loading dose on Day −2, −1, or 0 of the NHP toxicology study is followed on Day 0 by administration the potentially immunogenic therapeutic agent. NER and the therapeutic agent are then co-administered at the proscribed dose and intervals of every 1-4 weeks for as many as 12 weeks, following which the immunogenic therapeutic agent may be administered without NER.
Basiliximab is dosed approximately every 10 days to maintain a serum concentration at which CD25 is almost completely bound by basiliximab (about 200 ug/mL). Rapamycin is dosed daily or every other day during the course of basiliximab administration to maintain a rapamycin trough level within the range of 4-12 ng/mL. Following this treatment regimen, the immunogenic therapeutic agent may be administered without the immunosuppressants.

[2] = tested on: ADA against the potentially immunogenic therapeutic agent; assay: NHP preclinical pharmacokinetic study: ADA development with immunosuppressant plus immunogenic therapeutic agent; format: in vivo
Protocol: Administration of a basiliximab loading dose on Day 0 of the NHP preclinical pharmacokinetic study is followed on Day 1 by administration of a basiliximab maintenance dose and the potentially immunogenic therapeutic agent. Basiliximab is dosed approximately every 10 days to maintain a serum concentration at which CD25 is almost completely bound by basiliximab (about 200 ug/mL). The therapeutic agent is dosed at the proscribed interval and dose.
Administration of a nanocarrier encapsulated rapamycin (NER) loading dose on Day −2, −1, or 0 of the NHP preclinical pharmacokinetic study is followed on Day 0 by administration the potentially immunogenic therapeutic agent. NER and the therapeutic agent are then co-administered at the proscribed dose and intervals of every 1-4 weeks for as many as 12 weeks, following which the immunogenic therapeutic agent may be administered without NER.
Basiliximab is dosed approximately every 10 days to maintain a serum concentration at which CD25 is almost completely bound by basiliximab (about 200 ug/mL). Rapamycin is dosed daily or every other day during the course of basiliximab administration to maintain a rapamycin trough level within the range of 4-12 ng/mL. Following this treatment regimen, the immunogenic therapeutic agent may be administered without the immunosuppressant combination.

basiliximab
development of ADA ([1]; NHP toxicology study, immunosuppressant plus therapeutic agent, compared with therapeutic agent alone): prevents the development of ADA
immune mediated drug induced liver injury (DILI) in the group given immunosuppressant and therapeutic agent ([1]; in vivo): develop immune mediated drug induced liver injury (DILI)
development of ADA in the immunosuppressant treated group ([2]; NHP given immunosuppressant and potentially immunogenic therapeutic agent, compared with control group given therapeutic agent alone): no ADA develops or the level of ADA is sufficiently low
pharmacokinetic parameters of the therapeutic agent in the immunosuppressant treated group ([2]; NHP given immunosuppressant and therapeutic agent, altered in the control group due to ADA): unaltered
